From patent US12576154B2, “Conjugates of PSMA-binding moieties with cytotoxic agents” (PHILOCHEM AG, priority 2022, dated 2026)

Test system: HT1080.hPSMA tumor
Test: MMAE release from conjugates in HT1080.hPSMA tumor model (comparison and timepoint study)
Assay type: in vivo, mice
Conditions: HT1080.hPSMA tumor, n=3
Description: HT1080.hPSMA tumor cells were grown to 90% confluence and detached with Trypsin-EDTA 0.05%. Cells were resuspended in Hank's Balanced Salt Solution (HBSS) at a density of 5×10^7 cells/mL. 100 μL of HT1080.hPSMA cells (5×10^6 cells) were injected subcutaneously in the right flank of female athymic Balb/c AnNRj-Foxn1 mice (6 to 8 weeks of age). Tumors were grown until ˜250 mm^3 volume (average).
Comparison study: 0.1 mL of 50 μM solutions (2% DMSO, PBS, 250 nmol/kg) of the four conjugates (1 to 4) were injected intravenously. The animals were sacrificed in groups of 3 after 24 h, and blood and the following organs were extracted: HT1080.hPSMA tumor, heart, lungs, liver, kidney, spleen, stomach. The blood fraction was centrifuged, and the plasma (supernatant) was extracted. The organs were stored at −80° C. before being used for further analysis.
Timepoint study: 0.1 mL of a 50 μM solution (2% DMSO, PBS, 250 nmol/kg) of conjugate 1 was injected intravenously into the tail vein of the mice. The animals were sacrificed in groups of 3 after 6 h, 24 h, 48 h, and 72 h, and blood and the following organs were extracted: HT1080.hPSMA tumor, heart, lungs, liver, kidney, spleen, stomach. The blood fraction was centrifuged, and the plasma (supernatant) was extracted. The organs were stored at −80° C. before being used for further analysis.
Frozen plasma (50 μL) and mouse tissues (˜50 mg) were thawed, and 500 μL of PBS was added. Samples were kept on ice, and 50 μL solution of internal standard (d8-MMAE, 50 nM) was added. Samples were then homogenized at 4° C. with a tissue lyser for 2 minutes at 30 Hz for 4 cycles. After homogenization, samples were centrifuged (21'000 g, 10 min). Subsequently, 100 μL of supernatants were collected and added to 900 μL of acetonitrile (ACN) to induce protein precipitation. After centrifugation (21'000 g, 10 min), 800 μL of supernatants were collected and dried at room temperature with a vacuum centrifuge. Pellets were then resuspended in 20 μL of an aqueous solution containing 3% ACN and 0.1% of HCOOH, and 5 μL were injected into the UHPLC-MS system. Chromatographic separation was carried out on a Hypersil Gold C18 column (100 mm×2.1 mm, 1.9 μm particle size, 175 Å pore size) column temperature was set at 50° C. and a flow rate of 700 μL/min with a gradient program from 95% A (water+0.1% HCOOH), 5% B (ACN+0.1% HCOOH) to 35% of A in 2.5 minutes, from 35% A to 5% A in 0.4 minutes and 5% A was kept for 1.3 minutes before reconditioning at 95% A. The LC system was coupled to a Q-Exactive mass spectrometer via an Ion Max HESI Source. Ionization was carried out with a spray voltage of 3.5 kV; Sheath gas 40 units; Aux gas 10 units; capillary temperature of 380° C.; Aux gas temperature 450° C.; S-lens RF level 60. The mass spectrometer was operating in targeted Single Ion Monitoring mode (t-SIM) following the molecular ion 718.5113 m/z. The detector was working in positive ionization mode with the following parameters: resolution 70'000 (FWHM at 200 m/z); AGC target of 5×10^4; maximum injection time of 200 ms; isolation window 14 m/z; isolation offset 5 m/z. Peak areas of analytes and internal standards were integrated, and corresponding ratios were calculated. The ratios were then transformed into pmol/g of wet tissue using single-concentration external calibration points and corrected by the total weight of the sample analysed. The percentage of injected dose per gram (% ID/g) was finally calculated by normalizing the value based on the total dose injected into the mouse. Data analysis was performed with Skyline v22.2.0.351.

CC[C@H](C)[C@@H]([C@@H](CC(=O)N1CCC[C@H]1[C@H](OC)[C@@H](C)C(=O)N[C@H](C)[C@@H](O)c1ccccc1)OC)N(C)C(=O)[C@@H](NC(=O)[C@H](C(C)C)N(C)C(=O)OCc1ccc(NC(=O)[C@@H]2CCCN2C(=O)CNC(=O)CCCCCN2C(=O)CC(SC[C@H](N)C(=O)NCCCCCC(=O)NC[C@H]3CC[C@H](C(=O)N[C@@H](Cc4ccc5ccccc5c4)C(=O)NCCCC[C@H](NC(=O)N[C@@H](CCC(=O)O)C(=O)O)C(=O)O)CC3)C2=O)cc1)C(C)C (some centres unmarked) [Conjugate 1]
Timepoint study of MMAE release (6 h, 24 h, 48 h, 72 h after i.v. 250 nmol/kg): stable payload accumulation in the tumors over an extended time
MMAE release in tumor (24 hours after intravenous injection, 250 nmol/kg): 4.5 % ID/g
